Assay results from publication PMC8664833.

Experiments:
[1] = biological target: IMP3 (IGF2BP3) (UniProt O00425 1-579); assay: MST; 5 mM Mg2+; conditions: protein: recombinant; tags: His-SUMO; label: 3' pCp-Cy5; pseudoknot (SL1, SL2, SL3)
[2] = biological target: ZAP-S (short isoform of zinc-finger antiviral protein) (human, UniProt Q7Z2W4-2 1-699); assay: MST; 5 mM Mg2+; conditions: protein: recombinant; tags: N-terminal 6xHis-SUMO; label: 3' pCp-Cy5; pseudoknot (SL1, SL2, SL3)
Sequence of ZAP-S (short isoform of zinc-finger antiviral protein) (Q7Z2W4 other isoform, or with tags, fused parts or gaps): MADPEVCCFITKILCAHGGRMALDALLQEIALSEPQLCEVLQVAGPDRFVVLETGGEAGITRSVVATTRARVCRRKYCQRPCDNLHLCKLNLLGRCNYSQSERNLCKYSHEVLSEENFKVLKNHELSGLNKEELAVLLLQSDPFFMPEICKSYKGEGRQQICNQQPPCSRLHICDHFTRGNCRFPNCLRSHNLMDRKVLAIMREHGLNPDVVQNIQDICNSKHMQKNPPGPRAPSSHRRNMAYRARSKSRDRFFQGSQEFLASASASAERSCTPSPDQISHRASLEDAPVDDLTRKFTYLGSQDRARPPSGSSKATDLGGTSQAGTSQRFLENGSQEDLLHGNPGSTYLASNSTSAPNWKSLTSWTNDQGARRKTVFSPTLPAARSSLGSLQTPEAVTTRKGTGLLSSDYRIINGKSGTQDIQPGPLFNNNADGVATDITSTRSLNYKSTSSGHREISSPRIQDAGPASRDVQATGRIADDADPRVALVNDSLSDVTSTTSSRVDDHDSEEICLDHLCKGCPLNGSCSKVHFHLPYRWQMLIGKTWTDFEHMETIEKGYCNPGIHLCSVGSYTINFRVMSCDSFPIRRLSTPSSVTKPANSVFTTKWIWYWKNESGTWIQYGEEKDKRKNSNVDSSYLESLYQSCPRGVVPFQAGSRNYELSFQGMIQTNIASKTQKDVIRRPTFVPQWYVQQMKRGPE

Sequence of IMP3 (IGF2BP3) (O00425 whole entry, canonical isoform): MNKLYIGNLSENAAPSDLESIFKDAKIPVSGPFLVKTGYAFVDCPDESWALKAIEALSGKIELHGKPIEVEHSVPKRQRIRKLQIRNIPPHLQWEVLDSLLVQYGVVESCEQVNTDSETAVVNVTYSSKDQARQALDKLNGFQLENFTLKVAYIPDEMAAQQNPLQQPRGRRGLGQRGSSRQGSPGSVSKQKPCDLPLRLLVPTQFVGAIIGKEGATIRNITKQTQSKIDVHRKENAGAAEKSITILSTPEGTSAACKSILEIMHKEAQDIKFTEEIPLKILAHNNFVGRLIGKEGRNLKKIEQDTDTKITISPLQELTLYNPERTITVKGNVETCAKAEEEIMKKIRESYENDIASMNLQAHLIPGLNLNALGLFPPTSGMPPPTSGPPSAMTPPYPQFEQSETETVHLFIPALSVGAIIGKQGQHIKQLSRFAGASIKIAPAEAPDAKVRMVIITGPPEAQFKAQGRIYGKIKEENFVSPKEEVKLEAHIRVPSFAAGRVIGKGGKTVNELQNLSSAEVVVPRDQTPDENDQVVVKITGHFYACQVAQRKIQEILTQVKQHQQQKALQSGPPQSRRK

B1: Full PRF (WT SARS-CoV-2 -1PRF RNA) (structured_RNA)
RNA: UCGUUUUUAAACGGGUUUGCGGUGUAAGUGCAGCCCGUCUUACACCGUGCGGCACAGGCACUAGUACUGAUGUCGUAUACAGGGCUUUUGACAUCUACAAUGAUAAAGUAGCUG
Kd [1]: 806 ± 252 nM | Kd [2]: 110 ± 9 nM
